According to article PMC7531523 (mAbs, 2020):

What was measured:
Assay in all cases: flow cytometry on cells
[1] = molecular target: PD-L1 expressed on Flp-In CHO cells (Homo sapiens (), UniProt Q9NZQ7)
[2] = molecular target: OX40 expressed on Flp-In CHO cells (Homo sapiens (), UniProt P43489)
[3] = molecular target: PD-1 expressed on Flp-In CHO cells (Homo sapiens (), UniProt Q15116)
Sequence of PD-1 expressed on Flp-In CHO cells (Q15116 25-288): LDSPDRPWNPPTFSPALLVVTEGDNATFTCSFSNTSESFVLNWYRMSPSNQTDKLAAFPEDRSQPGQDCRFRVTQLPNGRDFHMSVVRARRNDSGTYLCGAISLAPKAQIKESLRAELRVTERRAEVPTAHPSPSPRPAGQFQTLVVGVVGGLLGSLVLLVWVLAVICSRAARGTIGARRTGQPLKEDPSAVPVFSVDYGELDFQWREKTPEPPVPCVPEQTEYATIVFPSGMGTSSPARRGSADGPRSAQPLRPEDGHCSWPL

Sequence of OX40 expressed on Flp-In CHO cells (P43489 29-277): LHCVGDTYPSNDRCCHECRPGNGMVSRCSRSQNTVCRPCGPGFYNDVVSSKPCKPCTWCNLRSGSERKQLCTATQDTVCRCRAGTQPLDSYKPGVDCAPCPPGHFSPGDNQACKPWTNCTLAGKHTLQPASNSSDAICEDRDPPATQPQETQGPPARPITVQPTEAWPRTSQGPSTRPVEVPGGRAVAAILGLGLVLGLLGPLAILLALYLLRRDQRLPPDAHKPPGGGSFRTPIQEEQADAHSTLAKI
Sequence of PD-L1 expressed on Flp-In CHO cells (Q9NZQ7 19-290): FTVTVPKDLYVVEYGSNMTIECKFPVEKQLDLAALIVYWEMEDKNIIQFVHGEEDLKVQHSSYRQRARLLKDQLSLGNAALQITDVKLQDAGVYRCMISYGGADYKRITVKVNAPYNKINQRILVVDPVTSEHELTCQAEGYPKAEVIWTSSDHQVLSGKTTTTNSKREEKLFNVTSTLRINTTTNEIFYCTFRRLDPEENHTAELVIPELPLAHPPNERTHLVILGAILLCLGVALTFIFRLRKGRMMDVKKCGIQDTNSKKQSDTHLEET

B1: tPDL1.3 full-length human IgG1 (antibody, V domains shown)
VH: QVQLVQSGAEVKKPGASVKVSCKASGFTFTSYDINWVRQATGQGLEWMGWMHPNSGITGYAQKFQGRVTMTRNTSISTAYMELSSLSSEDTAVYFCARYYYVSGSYDYWGQGTLVTVSS
VL: EIVMTQSPATLSLSPGERATLSCWASQSVSSSYLSWYQQKPGQAPRLLIYGASTRATGIPARFSGSGSGTDFTLTISSLQPEDFAVYYCQQDYNLPYTFGQGTKLEIK
[1]
  EC50: 0.3 nM

B2: tOX40.24 full-length human IgG1 (antibody, V domains shown)
VH: QVQLVESGGGVVQPGRSLRLSCAASGFTFRSYGMHWVRQAPGKGLEWLAIIWYDGSNKYYADSVKGRLTISRDNSKNTLYLQMNSLRAEDTAVYYCARDTQVAEAGFPHHHYYGMDVWGQGTTVTVSS
VL: not shown
[2]
  EC50: 0.7 nM

B3: tPD1.16 full-length human IgG1 (antibody, V domains shown)
VH: QVQLVESGGGVVQPGRSLRLSCAASGFTFSNYGMHWVRQAPGKGLEWVAVIWYDGTNKFYADSVKGRFTISRDNSKNTLYLQMNSLRAEDTAVYYCATNSDDYWGQGTLVTVSS
VL: AIQMTQSPSSLSASVGDRVTITCRASQDIRNDLGWYQQKPGKAPKLLIYAASLLRSGVPSRFSGSGSGTDFTLTISSLQPEDFATYYCLQDNNYPRTFGQGTKVEIK
[3]
  EC50: 2.8 nM
